In EP4667489A1 (Kyinno Biotechnology Co., Ltd., dated 2025):
Like-named read-outs stand apart in the source and are kept apart here.

T1: LAG3-His (ACRO, Cat No.: LA3-H5222) (UniProt P18627 23-450)
T1 construct: bought protein; not shown: His tag
T1 sequence (looked up): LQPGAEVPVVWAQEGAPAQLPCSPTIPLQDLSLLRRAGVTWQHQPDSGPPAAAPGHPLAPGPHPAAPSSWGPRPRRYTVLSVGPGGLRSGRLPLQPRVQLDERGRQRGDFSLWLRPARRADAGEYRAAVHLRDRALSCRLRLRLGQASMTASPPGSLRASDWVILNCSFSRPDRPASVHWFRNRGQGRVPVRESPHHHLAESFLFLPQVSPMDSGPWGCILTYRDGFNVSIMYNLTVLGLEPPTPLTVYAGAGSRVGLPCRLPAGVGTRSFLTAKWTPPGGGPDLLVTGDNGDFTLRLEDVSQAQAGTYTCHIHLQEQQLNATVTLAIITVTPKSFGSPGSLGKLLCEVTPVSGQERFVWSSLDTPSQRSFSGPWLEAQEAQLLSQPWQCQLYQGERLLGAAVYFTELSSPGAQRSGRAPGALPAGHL

T2: human LAG3 expressed on 293T-LAG3 cells (human, UniProt P18627 23-525)
T2 construct: whole, on cells; 293T cells stably expressing human LAG3 (Kyinno KC-0214); also called LAG3-expressing cells
T2 sequence (looked up): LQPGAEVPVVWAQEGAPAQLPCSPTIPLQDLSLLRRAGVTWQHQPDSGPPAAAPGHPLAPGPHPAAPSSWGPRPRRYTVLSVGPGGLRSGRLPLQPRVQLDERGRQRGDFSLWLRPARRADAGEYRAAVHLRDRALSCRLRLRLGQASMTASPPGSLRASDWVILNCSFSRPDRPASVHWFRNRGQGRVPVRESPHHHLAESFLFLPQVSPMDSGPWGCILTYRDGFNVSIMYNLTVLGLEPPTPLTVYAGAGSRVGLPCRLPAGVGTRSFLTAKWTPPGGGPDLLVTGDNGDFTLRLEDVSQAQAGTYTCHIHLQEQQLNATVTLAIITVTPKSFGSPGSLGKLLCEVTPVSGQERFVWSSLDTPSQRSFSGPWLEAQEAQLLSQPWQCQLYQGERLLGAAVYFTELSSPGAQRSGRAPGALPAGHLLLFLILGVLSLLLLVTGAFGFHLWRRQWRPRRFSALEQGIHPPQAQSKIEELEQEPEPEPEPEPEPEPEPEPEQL

T3: LAG3-hFc (fusion protein of the human LAG3 extracellular domain and human IgG1-Fc) (human, UniProt P18627 23-450)
T3 construct: extracellular domain; not shown: human IgG1-Fc, Genbank CAC20454.1
T3 sequence (looked up): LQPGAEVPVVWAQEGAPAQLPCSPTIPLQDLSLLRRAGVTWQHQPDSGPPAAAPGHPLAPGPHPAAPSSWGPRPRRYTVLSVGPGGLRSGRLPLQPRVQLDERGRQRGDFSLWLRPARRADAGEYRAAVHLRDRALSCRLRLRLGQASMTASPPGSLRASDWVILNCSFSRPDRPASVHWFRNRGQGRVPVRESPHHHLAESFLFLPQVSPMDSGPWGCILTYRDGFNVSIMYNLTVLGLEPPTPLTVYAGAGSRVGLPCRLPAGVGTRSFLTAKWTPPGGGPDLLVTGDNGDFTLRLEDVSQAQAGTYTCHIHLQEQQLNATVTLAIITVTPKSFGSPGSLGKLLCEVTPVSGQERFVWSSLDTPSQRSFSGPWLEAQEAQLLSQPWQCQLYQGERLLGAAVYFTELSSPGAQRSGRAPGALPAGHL


Columns and labels:
[1] = target: T1, LAG3-His (ACRO, Cat No.: LA3-H5222); experiment: BLI (ForteBio Octet), LAG3-His as mobile phase
[2] = target: T4, PD1-hFc (fusion protein of the human PD1 extracellular domain and human IgG1-Fc) (human, UniProt Q15116 25-170); experiment: flow cytometry, blocking of PD1 fusion protein binding to 293T-PDL1 cells (procedure of Example 8)
T4 construct: extracellular domain; also called human PD1-hFc; not shown: human IgG1-Fc, Genbank CAC20454.1

[3] = target: T2, human LAG3 expressed on 293T-LAG3 cells; experiment: flow cytometry on 293T-LAG3 cells
[4] = target: T5, PD1-His (Kyinno, Cat No.: KP-1023) (UniProt Q15116 25-167, limits assumed); experiment: BLI (ForteBio Octet), PD1-His as mobile phase
T5 construct: bought protein; not shown: His tag

[5] = target: T3, LAG3-hFc (fusion protein of the human …); experiment: flow cytometry, blocking of LAG3 fusion protein binding to Daudi cells (procedure of Example 5)
[6] = target: T6, human PD1 expressed on 293T-PD1 cells (human, UniProt Q15116 25-288); experiment: flow cytometry on 293T-PD1 cells
T6 construct: whole, on cells; 293T cells stably expressing human PD1 (Kyinno KC-0204); also called PD1-expressing cells; Jurkat NFAT-PD1-luc cells

[7] = target: T3, LAG3-hFc (fusion protein of the human …); experiment: flow cytometry, blocking of LAG3 fusion protein binding to Daudi cells (procedure of Example 5); remark: listed apart in the source
[8] = target: T1, LAG3-His (ACRO, Cat No.: LA3-H5222); experiment: BLI (ForteBio Octet), LAG3-His as mobile phase; remark: listed apart in the source
[9] = target: T6, human PD1 expressed on 293T-PD1 cells; experiment: flow cytometry on 293T-PD1 cells; remark: listed apart in the source
[10] = target: T2, human LAG3 expressed on 293T-LAG3 cells; experiment: flow cytometry on 293T-LAG3 cells; remark: listed apart in the source
[11] = target: T5, PD1-His (Kyinno, Cat No.: KP-1023); experiment: BLI (ForteBio Octet), PD1-His as mobile phase; remark: listed apart in the source
[12] = target: T4, PD1-hFc (fusion protein of the human …); experiment: flow cytometry, blocking of PD1 fusion protein binding to 293T-PDL1 cells (procedure of Example 8); remark: listed apart in the source

T4 sequence (Q15116 25-170): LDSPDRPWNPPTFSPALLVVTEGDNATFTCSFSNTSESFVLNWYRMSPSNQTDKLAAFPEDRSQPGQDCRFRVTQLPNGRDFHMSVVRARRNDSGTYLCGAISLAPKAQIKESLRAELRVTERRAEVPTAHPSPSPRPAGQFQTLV
T5 sequence (Q15116 25-167 limits assumed): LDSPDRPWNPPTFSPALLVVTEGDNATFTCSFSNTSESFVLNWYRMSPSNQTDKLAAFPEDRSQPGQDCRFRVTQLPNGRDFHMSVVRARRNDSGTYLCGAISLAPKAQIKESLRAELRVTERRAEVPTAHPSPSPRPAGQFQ
T6 sequence (Q15116 25-288): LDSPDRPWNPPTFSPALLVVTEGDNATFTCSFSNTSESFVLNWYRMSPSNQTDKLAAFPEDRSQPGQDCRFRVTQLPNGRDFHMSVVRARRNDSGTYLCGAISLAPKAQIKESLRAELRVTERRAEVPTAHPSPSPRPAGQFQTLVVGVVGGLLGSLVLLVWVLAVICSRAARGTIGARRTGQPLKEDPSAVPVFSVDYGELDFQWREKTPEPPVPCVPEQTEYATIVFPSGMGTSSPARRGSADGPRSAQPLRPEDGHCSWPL

| Binder | Kd [1] [nM] | koff [1] [s⁻¹] | kon [1] [M⁻¹ s⁻¹] | IC50 [2] [µg/mL] | EC50 [3] [µg/mL] | Kd [4] [nM] | koff [4] [s⁻¹] | kon [4] [M⁻¹ s⁻¹] | IC50 [5] [µg/mL] | EC50 [6] [µg/mL] | IC50 [7] [µg/mL] | Kd [8] [nM] | koff [8] [s⁻¹] | kon [8] [M⁻¹ s⁻¹] | EC50 [9] [µg/mL] | EC50 [10] [µg/mL] | Kd [11] [nM] | koff [11] [s⁻¹] | kon [11] [M⁻¹ s⁻¹] | IC50 [12] [µg/mL] |
| --- | --- | --- | --- | --- | --- | --- | --- | --- | --- | --- | --- | --- | --- | --- | --- | --- | --- | --- | --- | --- |
| KA-1835 H28G27V4×H107D1210-hIgG4M (bispecific antibody, PD1×LAG3 bispecific; first heavy chain targets PD1 (hIgG4 Hole), second targets LAG3 (hIgG4 Knob); common light chain 1) heavy 1: QVQLVESGGGLVKPGGSLRLSCAASGFTFSDYGMHWIRQAPGKGLEWVAYISSGSYTIYYADTVRDRFTISRDSAKNSLYLQMNSLRAEDTAVYYCVRRGPGYFGSTALDYWGQGTTVTVSSASTKGPSVFPLAPCSRSTSESTAALGCLVKDYFPEPVTVSWNSGALTSGVHTFPAVLQSSGLYSLSSVVTVPSSSLGTKTYTCNVDHKPSNTKVDKRVESKYGPPCPPCPAPEFLGGPSVFLFPPKPKDTLMISRTPEVTCVVVDVSQEDPEVQFNWYVDGVEVHNAKTKPREEQFNSTYRVVSVLTVLHQDWLNGKEYKCKVSNKGLPSSIEKTISKAKGQPREPQVCTLPPSQEEMTKNQVSLSCAVKGFYPSDIAVEWESNGQPENNYKTTPPVLDSDGSFFLVSRLTVDKSRWQEGNVFSCSVMHEALHNHYTQKSLSLSLG heavy 2: QVQLQESGPGLVKPSETLSLTCTVSGYSFTSGYYWNWIRQPPGKGLEWIGYVSYFGTANYNPALKNRVTISRDTSKNQFSLKLSSVTAADTAVYYCARGEEWDWSFDVWGQGTTVTVSSASTKGPSVFPLAPCSRSTSESTAALGCLVKDYFPEPVTVSWNSGALTSGVHTFPAVLQSSGLYSLSSVVTVPSSSLGTKTYTCNVDHKPSNTKVDKRVESKYGPPCPPCPAPEFLGGPSVFLFPPKPKDTLMISRTPEVTCVVVDVSQEDPEVQFNWYVDGVEVHNAKTKPREEQFNSTYRVVSVLTVLHQDWLNGKEYKCKVSNKGLPSSIEKTISKAKGQPREPQVYTLPPCQEEMTKNQVSLWCLVKGFYPSDIAVEWESNGQPENNYKTTPPVLDSDGSFFLYSRLTVDKSRWQEGNVFSCSVMHEALHNHYTQKSLSLSLG light: DIQITQSPSSLSASVGDRVTITCSATSGVSYMHWYQQKPGKAPKRLIYDTSRLASGVPSRFSGSGSGTDYTLTISSLQPEDFATYYCQQWSSNPPYTFGQGTRLEIKRTVAAPSVFIFPPSDEQLKSGTASVVCLLNNFYPREAKVQWKVDNALQSGNSQESVTEQDSKDSTYSLSSTLTLSKADYEKHKVYACEVTHQGLSSPVTKSFNRGEC | 0.168 | 0.000195 | 1.16e+06 | 0.435 | 0.228 | 4.73 | 0.00105 | 222000 | 0.879 | 0.651 | – | – | – | – | – | – | – | – | – | – |
| KA-1836 H107D1210×H28G27V4-hIgG4M (bispecific antibody, PD1×LAG3 bispecific; first heavy chain targets PD1 (hIgG4 Knob), second targets LAG3 (hIgG4 Hole); common light chain 1) heavy 1: QVQLVESGGGLVKPGGSLRLSCAASGFTFSDYGMHWIRQAPGKGLEWVAYISSGSYTIYYADTVRDRFTISRDSAKNSLYLQMNSLRAEDTAVYYCVRRGPGYFGSTALDYWGQGTTVTVSSASTKGPSVFPLAPCSRSTSESTAALGCLVKDYFPEPVTVSWNSGALTSGVHTFPAVLQSSGLYSLSSVVTVPSSSLGTKTYTCNVDHKPSNTKVDKRVESKYGPPCPPCPAPEFLGGPSVFLFPPKPKDTLMISRTPEVTCVVVDVSQEDPEVQFNWYVDGVEVHNAKTKPREEQFNSTYRVVSVLTVLHQDWLNGKEYKCKVSNKGLPSSIEKTISKAKGQPREPQVYTLPPCQEEMTKNQVSLWCLVKGFYPSDIAVEWESNGQPENNYKTTPPVLDSDGSFFLYSRLTVDKSRWQEGNVFSCSVMHEALHNHYTQKSLSLSLG heavy 2: QVQLQESGPGLVKPSETLSLTCTVSGYSFTSGYYWNWIRQPPGKGLEWIGYVSYFGTANYNPALKNRVTISRDTSKNQFSLKLSSVTAADTAVYYCARGEEWDWSFDVWGQGTTVTVSSASTKGPSVFPLAPCSRSTSESTAALGCLVKDYFPEPVTVSWNSGALTSGVHTFPAVLQSSGLYSLSSVVTVPSSSLGTKTYTCNVDHKPSNTKVDKRVESKYGPPCPPCPAPEFLGGPSVFLFPPKPKDTLMISRTPEVTCVVVDVSQEDPEVQFNWYVDGVEVHNAKTKPREEQFNSTYRVVSVLTVLHQDWLNGKEYKCKVSNKGLPSSIEKTISKAKGQPREPQVCTLPPSQEEMTKNQVSLSCAVKGFYPSDIAVEWESNGQPENNYKTTPPVLDSDGSFFLVSRLTVDKSRWQEGNVFSCSVMHEALHNHYTQKSLSLSLG light: DIQITQSPSSLSASVGDRVTITCSATSGVSYMHWYQQKPGKAPKRLIYDTSRLASGVPSRFSGSGSGTDYTLTISSLQPEDFATYYCQQWSSNPPYTFGQGTRLEIKRTVAAPSVFIFPPSDEQLKSGTASVVCLLNNFYPREAKVQWKVDNALQSGNSQESVTEQDSKDSTYSLSSTLTLSKADYEKHKVYACEVTHQGLSSPVTKSFNRGEC | 0.18 | 0.000266 | 1.48e+06 | 0.302 | 0.557 | 6.55 | 0.00116 | 178000 | 0.972 | 0.33 | – | – | – | – | – | – | – | – | – | – |
| KA-1793 H28G27V4×H107D1210-hIgG4M (bispecific antibody, PD1×LAG3 bispecific; first heavy chain targets PD1 (hIgG4 Hole), second targets LAG3 (hIgG4 Knob); common light chain 2) heavy 1: QVQLVESGGGLVKPGGSLRLSCAASGFTFSDYGMHWIRQAPGKGLEWVAYISSGSYTIYYADTVRDRFTISRDSAKNSLYLQMNSLRAEDTAVYYCVRRGPGYFGSTALDYWGQGTTVTVSSASTKGPSVFPLAPCSRSTSESTAALGCLVKDYFPEPVTVSWNSGALTSGVHTFPAVLQSSGLYSLSSVVTVPSSSLGTKTYTCNVDHKPSNTKVDKRVESKYGPPCPPCPAPEFLGGPSVFLFPPKPKDTLMISRTPEVTCVVVDVSQEDPEVQFNWYVDGVEVHNAKTKPREEQFNSTYRVVSVLTVLHQDWLNGKEYKCKVSNKGLPSSIEKTISKAKGQPREPQVCTLPPSQEEMTKNQVSLSCAVKGFYPSDIAVEWESNGQPENNYKTTPPVLDSDGSFFLVSRLTVDKSRWQEGNVFSCSVMHEALHNHYTQKSLSLSLG heavy 2: QVQLQESGPGLVKPSETLSLTCTVSGYSFTSGYYWNWIRQPPGKGLEWIGYVSYFGTANYNPALKNRVTISRDTSKNQFSLKLSSVTAADTAVYYCARGEEWDWSFDVWGQGTTVTVSSASTKGPSVFPLAPCSRSTSESTAALGCLVKDYFPEPVTVSWNSGALTSGVHTFPAVLQSSGLYSLSSVVTVPSSSLGTKTYTCNVDHKPSNTKVDKRVESKYGPPCPPCPAPEFLGGPSVFLFPPKPKDTLMISRTPEVTCVVVDVSQEDPEVQFNWYVDGVEVHNAKTKPREEQFNSTYRVVSVLTVLHQDWLNGKEYKCKVSNKGLPSSIEKTISKAKGQPREPQVYTLPPCQEEMTKNQVSLWCLVKGFYPSDIAVEWESNGQPENNYKTTPPVLDSDGSFFLYSRLTVDKSRWQEGNVFSCSVMHEALHNHYTQKSLSLSLG light: DIQITQSPSSLSASVGDRVTITCSASSSVSYMHWYQQKPGKAPKRLIYDTSKLASGVPSRFSGSGSGTDYTLTISSLQPEDFATYYCQQWSSNPPYTFGQGTRLEIKRTVAAPSVFIFPPSDEQLKSGTASVVCLLNNFYPREAKVQWKVDNALQSGNSQESVTEQDSKDSTYSLSSTLTLSKADYEKHKVYACEVTHQGLSSPVTKSFNRGEC | – | – | – | – | – | – | – | – | – | – | 0.88 | 0.175 | 0.000111 | 633000 | 0.3 | 0.0931 | 6.87 | 0.00255 | 372000 | 0.232 |
